According to the supplement of paper PMC7877785:
± gives the uncertainty stated by the source.

Experiment: self-splicing fitness, log relative to wild type (ln ratio); higher = more splicing; Tetrahymena group I intron in knt gene, E. coli kanamycin selection, DiMSum; sequences stand for … in CUCUCU…GGAGGGAAAAGUUAUCAGGCAUGCACCUGGUAGCUAGUCUUUAAACCAAUAGAUUGCAUCGGUUUAAAAGGCAAGACCGUCAAAUUGCGGGAAAGGGGUCAACAGCCGUUCAGUACCAAGUCUCAGGGGAAACUUUGAGAUGGCCUUGCAAAGGGUAUGGUAAUAAGCUGACGGACAUGGUCCUAACCACGCAGCCAAGUCCUAAGUCAACAGAUCUUCUGUUGAUAUGGAUGCAGUUCACAGACUAAAUGUCGGUCGGGGAAGAUGUAUUCUUCUCAUAAGAUAUAGUCGGACCUCUCCUUAAUGGGAGCUAGCGGAUGAAGUGAUGCAACACUGGAGCCGCUGGGAACUAAUUUGUAUGCGAAAGUAUAUUGAUUAGUUUUGGAGUACUCGUGGUCG
Outline: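 Six replicate transformations of E. coli BL21(DE3) with a pET-22b(+) library were grown overnight at 37°C or 30°C. The library randomised all eight P1ex-region intron nucleotides, the intron lying in the knt kanamycin-resistance gene, and plates were LB agar with or without 25 μg/mL kanamycin plus 100 μg/mL carbenicillin, 50 μM IPTG and 0.2% rhamnose. Pooled colonies were amplicon-sequenced on an Illumina HiSeq 2500, and fitness is the DiMSum error-weighted combination of wild-type-normalised replicate fold changes, kanamycin versus none.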

Sequence | self-splicing fitness (ln) (30 °C) | self-splicing fitness (ln) (37 °C)
AUUCAGCAAUAUUACGAUUA | -0.138 ± 0.097 | 0.146 ± 0.089
GAAGAGCAAUAUUACGAUCC | -1.84 ± 0.39 | 
UUGAAGCAAUAUUACGAGCC | -2.69 ± 0.48 | -1.56 ± 0.49
CCAUAGCAAUAUUACGCCCU | -2.8 ± 0.29 | -2.84 ± 0.39
AAAUAGCAAUAUUACGCUUU | -2.63 ± 0.15 | -1.09 ± 0.12
UAGGAGCAAUAUUACGUUGG |  | -1.27 ± 0.28
AAUGAGCAAUAUUACGGAGA | -2.59 ± 0.4 | -2.51 ± 0.34
GGCAAGCAAUAUUACGCGUU | -0.907 ± 0.075 | -0.815 ± 0.1
CUGAAGCAAUAUUACGAGAG | -1.32 ± 0.088 | -1.18 ± 0.11
GCCUAGCAAUAUUACGCUCC | -1.64 ± 0.28 | 0.265 ± 0.2
CAAAAGCAAUAUUACGGCUG | -1.3 ± 0.088 | -0.592 ± 0.11
AGGCAGCAAUAUUACGGCUG | -2.3 ± 0.35 | 
CGUGAGCAAUAUUACGAUGU | -1.56 ± 0.16 | -2.29 ± 0.25
UACCAGCAAUAUUACGGCUC | -0.179 ± 0.074 | -0.0529 ± 0.096
AAAAAGCAAUAUUACGCAUG | -0.952 ± 0.066 | 0.04 ± 0.074
CGUUAGCAAUAUUACGCUUG | -1.71 ± 0.12 | -1.26 ± 0.15
ACUUAGCAAUAUUACGGUUU | -1.23 ± 0.11 | -0.718 ± 0.16
AACGAGCAAUAUUACGCGGG | -3.64 ± 0.42 | -2.32 ± 0.22
AGAGAGCAAUAUUACGGGGA | -2.46 ± 0.25 | -1.84 ± 0.28

Sequence | self-splicing fitness (ln) (30 °C) | self-splicing fitness (ln) (37 °C)
GUCGAGCAAUAUUACGGUAC | -1.98 ± 0.11 | -1.91 ± 0.16
GUGUAGCAAUAUUACGGCUC | -0.377 ± 0.064 | 0.195 ± 0.077
CUUCAGCAAUAUUACGUAGA | -3.3 ± 0.19 | -2.92 ± 0.27
UAGGAGCAAUAUUACGGGGU | -3.84 ± 0.4 | -2.12 ± 0.35
GAUAAGCAAUAUUACGAUAG | -1.66 ± 0.15 | -1.95 ± 0.2
GUAAAGCAAUAUUACGCAUU | -1.76 ± 0.099 | -0.597 ± 0.11
GUACAGCAAUAUUACGCGCU | -1.36 ± 0.13 | -0.689 ± 0.19
UCUCAGCAAUAUUACGUGAC | -2.02 ± 0.39 | -1.82 ± 0.37
CAUAAGCAAUAUUACGCUAU | -2.93 ± 0.28 | -2.99 ± 0.4
AUAGAGCAAUAUUACGUGAU | -2.02 ± 0.12 | -0.825 ± 0.17
GUGCAGCAAUAUUACGCUCU | -1.77 ± 0.14 | -0.404 ± 0.15
CGUGAGCAAUAUUACGAUAG | -1.13 ± 0.1 | -0.217 ± 0.15
CUGCAGCAAUAUUACGCAUA | -2.84 ± 0.2 | -2.73 ± 0.17
CGAUAGCAAUAUUACGUUGA | -2.74 ± 0.18 | -1.3 ± 0.14
CUCCAGCAAUAUUACGACAG | -1.4 ± 0.14 | -0.3 ± 0.14
UUAGAGCAAUAUUACGGACG | -1.73 ± 0.15 | -0.509 ± 0.29
UGAUAGCAAUAUUACGCCUG | 0.213 ± 0.14 | 0.502 ± 0.2
ACUGAGCAAUAUUACGACCU | -1.57 ± 0.11 | -0.583 ± 0.13
UUAUAGCAAUAUUACGCACA | -0.698 ± 0.085 | 0.287 ± 0.084
